23 molecules from patent US20260242436A1 (HANMI PHARM, published 2026) can be followed below.

For assay [1], the target named is T1, interleukin-2 beta receptor (SYMANSIS, #4122H) to which a human immunoglobulin Fc region was linked (UniProt P14784 27-239, limits assumed).
T1 construct: Bought receptor-Fc, captured on anti-human immunoglobulin antibody; also called IL-2Rβ; CD122; not shown: human immunoglobulin Fc region
T1 sequence (looked up): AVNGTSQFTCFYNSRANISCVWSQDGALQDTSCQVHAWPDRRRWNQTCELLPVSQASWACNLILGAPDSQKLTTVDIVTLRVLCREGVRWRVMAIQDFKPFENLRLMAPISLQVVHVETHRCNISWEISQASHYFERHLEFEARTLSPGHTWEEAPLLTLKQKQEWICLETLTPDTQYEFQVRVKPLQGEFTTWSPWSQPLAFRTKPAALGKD
Nature of the assay: SPR (Biacore T200); receptor-Fc captured on anti-human Ig CM5 chip, analog flowed; relative to analog 1 = 100%. Here is the method:
(§1) In order to measure the binding affinities of the interleukin-2 analogs obtained in Example 4 for each of interleukin-2 alpha and beta receptors, surface plasmon resonance (SPR, BIACORE T200, GE Healthcare) was used. The binding affinities of the prepared analogs for the alpha and beta receptors were measured, and the binding affinity of each of the prepared analogs was compared with that of interleukin-2 analog 1 (aldesleukin).
(§2) First, an anti-human immunoglobulin antibody (Abcam, #ab97221) was immobilized to a CM5 chip (GE healthcare) to about 5,000 resonance unit (RU) through amine coupling, and then the interleukin-2 alpha receptor ([…], #4102H) or interleukin-2 beta receptor ([…], #4122H), to each of which a human immunoglobulin Fc region was linked, was bound to the immunoglobulin antibody using an antigen-antibody binding reaction and thus finally immobilized. Thereafter, the recombinant interleukin-2 analog prepared above was diluted with HBS-P+ buffer (Cytiva, BR100671) to various concentrations by serial dilution, and the diluted samples were allowed to flow through CM5 chips, to which the interleukin-2 receptors were finally immobilized, to measure the binding affinity of each interleukin-2 receptor. […] Upon the completion of the measurement, the binding affinity of the receptor was evaluated according to the 1:1 binding fitting model in the Biaevaluation program.

The target in assay [2] is T2, interleukin-2 alpha receptor (SYMANSIS, #4102H) to which a human immunoglobulin Fc region was linked (UniProt P01589 22-213, limits assumed).
T2 construct: Bought receptor-Fc, captured on anti-human immunoglobulin antibody; also called IL-2Rα; CD25; not shown: human immunoglobulin Fc region
T2 sequence (looked up): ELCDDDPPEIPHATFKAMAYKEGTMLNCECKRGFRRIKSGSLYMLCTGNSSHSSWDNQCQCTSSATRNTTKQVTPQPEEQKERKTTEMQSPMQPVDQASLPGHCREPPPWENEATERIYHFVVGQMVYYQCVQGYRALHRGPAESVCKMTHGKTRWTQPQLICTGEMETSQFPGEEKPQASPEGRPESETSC
The description is as above. The protocol: as §1, §2

B1: interleukin-2 analog 71 (ligand)
chain: PTSSSTKKTQLQLEHLLLDLQMILNGINNYKNPKLTAMLTKKFYMPKKATELKHLQCLEEELKPLEEVLNLAQSKNFHFEPRDVVSNINVFVLELKGSETTFMCEYADETATIVEFLNRWITFSQSIISTLT
In the case of B1, in assay [1], the “Relative binding affinity (%)” value was found to be 17100%.

B2: interleukin-2 analog 94 (ligand)
chain: PTSSSTKKTQLQLEHLLLDLQMILNGINNYKNPKLTRMLTFKFYMPKKATELKHLQCLEEELKPLEEVLNLAQSKNFHFEPRDVVSNINVFVFEFKGSETTFMCEYADETATIVEFLNRWITFSQSIISTLT
With B2, the “Relative binding affinity (%)” value in assay [1] was 35.5%.

B3: interleukin-2 analog 34 (ligand)
chain: PTSSSTKKTQLQLEHLLLDLQMILNGINNYKNPKLTAMLTFKFYMPKKATELKHLQCLEEELKPLEEVLNLAQSKNFHFRPRELISNINVIVLELKGSETTFMCEYADETATIVEFLNRWITFSQSIISTLT
Take B3: the “Relative binding affinity (%)” value was 322% in assay [1] and 9.4% in assay [2].

B4: interleukin-2 analog 55 (ligand)
chain: PTSSSTKKTQLQLEHLLLDLQMILNGINNYKNPKLTAMLTKKFYMPKKATELKHLQCLEEELKPLEEVLNLAHSKNFHFDPRDLISNINVFVLELKGSETTFMCEYADETATIVEFLNRWITFSQSIISTLT
Regarding B4, the “Relative binding affinity (%)” value in assay [1] came to 3030%.

B5: interleukin-2 analog 77 (ligand)
chain: PTSSSTKKTQLQLEHLLLDLQMILNGINNYKNPKLTAMLTKEFYMPKKATELKHLQCLERELKPLEEVLNLAQSKNFHFDPRDWVSNINVFVLELKGSETTFMCEYADETATIVEFLNRWITFSQSIISTLT
In the case of B5, in assay [1], the “Relative binding affinity (%)” value is 644%.

B6: interleukin-2 analog 25 (ligand)
chain: PTSSSTKKTQLQLEHLLFDLQMILNGINNYKNPKLTAMLTKKFYMPKKATELKHLQCLEEELKPLEEVLNLAQSKNFHLRPRDLISNINVIVLELKGSETTFMCEYADETATIVEFLNRWITFSQSIISTLT
As to B6, the “Relative binding affinity (%)” value in assay [1] came to 21.7%.

B7: interleukin-2 analog 61 (ligand)
chain: PTSSSTKKTQLQLEHLLLDLQMILNGINNYKNPKLTAMLTKKFYMPKKATELKHLQCLEEELKPLEEVLNLAQSKNFHYDPRDGVSNINVYVLELKGSETTFMCEYADETATIVEFLNRWITFSQSIISTLT
For the molecule B7, in assay [1], the “Relative binding affinity (%)” value was 1040%.

B8: interleukin-2 analog 14 (ligand)
chain: PTSSSTKKTQLQLEHLLYDLQMILNGINNYKNPKLTAMLTKKFYMPKKATELKHLQCLEEELKPLEEVLNLAQSKNFHLRPRDLISNINVIVLELKGSETTFMCEYADETATIVEFLNRWITFSQSIISTLT
With B8, the “Relative binding affinity (%)” value in assay [1] amounted to 130%.

B9: interleukin-2 analog 57 (ligand)
chain: PTSSSTKKTQLQLEHLLLDLQMILNGINNYKNPKLTAMLTKKFAMPKKATELKHLQCLEEELKPLEEVLNLAHSKNFHFDPRDLISNINVFVLELKGSETTFMCEYADETATIVEFLNRWITFSQSIISTLT
Take B9: the “Relative binding affinity (%)” value in assay [1] turned out to be 2570%.

B10: interleukin-2 analog 16 (ligand)
chain: PTSSSTKKTQLQLEHLLLDLQMILNGINNYKNPKLTAMLTKKFYMPKKATELKHLQCLEEELKPLEEVLNLAQSKNFHLRPRDLISQINVIVLELKGSETTFMCEYADETATIVEFLNRWITFSQSIISTLT
For the molecule B10, the “Relative binding affinity (%)” value came out at 1260% in assay [1] and 0.2% in assay [2].

B11: interleukin-2 analog 59 (ligand)
chain: PTSSSTKKTQLQLEHLLLDLQMILNGINNYKNPKLTAMLTKKFYMPKKATELKHLQCLEEELKPLEEVLNLAQSKNFHFDPRDAASNINVYVLELKGSETTFMCEYADETATIVEFLNRWITFSQSIISTLT
As for B11, the “Relative binding affinity (%)” value in assay [1] was 1530%.

B12: interleukin-2 analog 75 (ligand)
chain: PTSSSTKKTQLQLEHLLLDLQMILNGINNYKNPKLTAMLTKKFAMPKKATELKHLQCLEEELKPLEEVLNLAQSKNFHFEPRDVVSNINVFVLELKGSETTFMCEYADETATIVEFLNRWITFSQSIISTLT
Regarding B12, the “Relative binding affinity (%)” value in assay [1] came to 9570%.

B13: interleukin-2 analog 84 (ligand)
chain: PTSSSTKKTQLQLEHLRLDLEMILNGINNYKNPKLTRMLTFKFYMPKKATELKHLQCLEEELKPLEEVLNLAQSKNFHVDPRDEVSNINVFVLELKGSETTFMCEYADETATIVEFLNRWITFSQSIISTLT
Regarding B13, the “Relative binding affinity (%)” value in assay [1] was determined as 711%.

B14: interleukin-2 analog 74 (ligand)
chain: PTSSSTKKTQLQLEHLLLDLQMILNGINNYKNPKLTDMLTKKFYMPKKATELKHLQCLEEELKPLEEVLNLAQSKNFHYDPRDVVSNINVFVLELKGSETTFMCEYADETATIVEFLNRWITFSQSIISTLT
B14: the “Relative binding affinity (%)” value in assay [1] amounted to 8150%.

B15: interleukin-2 analog 73 (ligand)
chain: PTSSSTKKTQLQLEHLLLDLQMILNGINNYKNPKLTAMLTKKFYMPKKATELKHLQCLEEELKPLEEVLNLAQSKNFHFDPRDWVSNINVFVLELKGSETTFMCEYADETATIVEFLNRWITFSQSIISTLT
For B15, the “Relative binding affinity (%)” value in assay [1] stood at 1590%.

B16: interleukin-2 analog 24 (ligand)
chain: PTSSSTKKTQLQLEHLLVDLQMILNGINNYKNPKLTAMLTKKFYMPKKATELKHLQCLEEELKPLEEVLNLAQSKNFHLRPRDLISNINVIVLELKGSETTFMCEYADETATIVEFLNRWITFSQSIISTLT
Turning to B16, the “Relative binding affinity (%)” value in assay [1] was determined as 37.9%.

B17: interleukin-2 analog 41 (ligand)
chain: PTSSSTKKTQLQLEHLLLDLQMILNGINNYKNPKLTRMLTFKFYMPKKATELKHLQCLEEELKPLEEVLNLAQSKNFHFDPRDVVSNINVFVLELKGSETTFMCEYADETATIVEFLNRWITFSQSIISTLT
With B17, the “Relative binding affinity (%)” value amounted to 22800% in assay [1] and 121% in assay [2].

B18: interleukin-2 analog 31 (ligand)
chain: PTSSSTKKTQLQLEHLLLDLQMILNGINNYKNPKLTAMLTFKFYMPKKATELKHLQCLEEELKPLEEVLNLAQSKNFHLRPRELISNINVIVLELKGSETTFMCEYADETATIVEFLNRWITFSQSIISTLT
In the case of B18, the “Relative binding affinity (%)” value in assay [1] was 236%; in assay [2], 5%.

B19: interleukin-2 analog 18 (ligand)
chain: PTSSSTKKTQLQLEHLLLDLQMILNGINNYKNPKLTAMLTKKFYMPKKATELKHLQCLEQELKPLEEVLNLAQSKNFHLRPRDLISNINVIVLELKGSETTFMCEYADETATIVEFLNRWITFSQSIISTLT
With B19, the “Relative binding affinity (%)” value in assay [1] was found to be 35.3%.

B20: interleukin-2 analog 58 (ligand)
chain: PTSSSTKKTQLQLEHLLLDLQMILNGINNYKNPKLTAMLTKKFYMPKKATELKHLQCLEEELKPLEEVLNLAQSKNFHFDPRDAASNINVFVLELKGSETTFMCEYADETATIVEFLNRWITFSQSIISTLT
Turning to B20, in assay [1], the “Relative binding affinity (%)” value stood at 7770%.

B21: interleukin-2 analog 70 (ligand)
chain: PTSSSTKKTQLQLEHLLLDLQMILNGINNYKNPKLTAMLTKKFYMPKKATELKHLQCLEEELKPLEEVLNLAQSKNFHYDPRDVVSNINVFVLELKGSETTFMCEYADETATIVEFLNRWITFSQSIISTLT
For the molecule B21, the “Relative binding affinity (%)” value in assay [1] is 10200%.

B22: interleukin-2 analog 13 (ligand)
chain: PTSSSTKKTQLQLEHLLLDLQMILNGINNYKNPKLTAMLTAKFYMPKKATELKHLQCLEEELKPLEEVLNLAQSKNFHLRPRDLISNINVIVLELKGSETTFMCEYADETATIVEFLNRWITFSQSIISTLT
On to B22, for which the entries for the “Relative binding affinity (%)” value in assay [1] and in assay [2] were 149% and 1.1%, respectively.

B23: interleukin-2 analog 76 (ligand)
chain: PTSSSTKKTQLQLEHLLLDLQMILNGINNYKNPKLTAMLTKQFYMPKKATELKHLQCLERELKPLEEVLNLAQSKNFHFDPRDVGSNINVFVLELKGSETTFMCEYADETATIVEFLNRWITFSQSIISTLT
Turning to B23, in assay [1], the “Relative binding affinity (%)” value was found to be 1040%.
